Experimental data from IntAct's records for PubMed 19130088.

B1: Calcium-dependent protein kinase 4 (Arabidopsis thaliana (Mouse-ear cress)), Q38869 (parent)
chain: MEKPNPRRPSNSVLPYETPRLRDHYLLGKKLGQGQFGTTYLCTEKSSSANYACKSIPKRKLVCREDYEDVWREIQIMHHLSEHPNVVRIKGTYEDSVFVHIVMEVCEGGELFDRIVSKGCFSEREAAKLIKTILGVVEACHSLGVMHRDLKPENFLFDSPSDDAKLKATDFGLSVFYKPGQYLYDVVGSPYYVAPEVLKKCYGPEIDVWSAGVILYILLSGVPPFWAETESGIFRQILQGKIDFKSDPWPTISEGAKDLIYKMLDRSPKKRISAHEALCHPWIVDEHAAPDKPLDPAVLSRLKQFSQMNKIKKMALRVIAERLSEEEIGGLKELFKMIDTDNSGTITFEELKAGLKRVGSELMESEIKSLMDAADIDNSGTIDYGEFLAATLHINKMEREENLVVAFSYFDKDGSGYITIDELQQACTEFGLCDTPLDDMIKEIDLDNDGKIDFSEFTAMMKKGDGVGRSRTMRNNLNFNIAEAFGVEDTSSTAKSDDSPK
partner: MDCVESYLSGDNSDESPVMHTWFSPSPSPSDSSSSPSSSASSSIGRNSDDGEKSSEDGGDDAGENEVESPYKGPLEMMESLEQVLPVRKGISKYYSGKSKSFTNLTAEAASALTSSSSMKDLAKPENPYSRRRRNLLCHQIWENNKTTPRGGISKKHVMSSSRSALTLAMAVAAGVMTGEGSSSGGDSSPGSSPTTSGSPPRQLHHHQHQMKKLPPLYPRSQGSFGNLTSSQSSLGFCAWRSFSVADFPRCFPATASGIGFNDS

Variants of: B1
Details: with o3l1_arath O3L1, Q9C593

Variant	effect of a mutation on the interaction
D149A;F305A	disrupting interaction
D170A	disrupting interaction
D170A;F305A	disrupting interaction
D149A	disrupting interaction
